From US8241627B2, “Modified polypeptides stabilized in a desired conformation and methods for producing same” (The Center for Blood Research, Inc., priority 2000, dated 2012)
Positions count from the first letter of the chain named. In names and notes the source's numbering stands.

B1: L289C/K294C: low affinity closed αL I-domain mutant, cysteines for L289 and K294 (protein)
chain: GNVDLVFLFDGSMSLQPDEFQKILDFMKDVMKKLSNTSYQFAAVQFSTSYKTEFDFSDYVKRKDPDALLKHVKHMLLLTNTFGAINYVATEVFREELGARPDATKVLIIITDGEATDSGNIDAAKDIIRYIIGIGKHFQTKESQETLHKFASKPASEFVKICDTFECLKDLFTELQKKIY
B2: wild-type I-domain: wild-type αL I-domain, soluble recombinant or expressed on K562 surface via PDGFR transmembrane domain (protein)
chain: B1 chain with C162L, C167K

Experiments:
ICAM-1 [1] = target: T1, ICAM-1 (Homo sapiens, UniProt P05362); assay: Binding of LFA-1 or isolated I-domain transfectants to immobilized ICAM-1; type: cell-based; set-up: ICAM-1 was purified from human tonsil; from tissue; host or cells: human tonsil; conditions: for binding of K562 cells expressing isolated I-domains to immobilized ICAM-1: I-domain on cell surface via PDGFR transmembrane domain; for effect of Mn2+ or Mg2+ on ligand binding of isolated I-domains: K562, 1 mM Mn2+ or Mg2+; for effect of DTT treatment on binding to ICAM-1: K562 transfectants, DTT 10 mM in L15/FBS
Procedure: Clones of the transfectants that expressed similar levels of cell surface LFA-1, as determined by flow cytometry using monoclonal antibody TS2/4 (FIG. 3B), were tested for their ability to bind to immobilized ICAM-1, as previously described (Lu, C and Springer, T A (1997) J Immunol 159:268-278).
Briefly, ICAM-1 was purified from human tonsil, and coated to 96-well plates as described previously (Lu, C and Springer T A, (1997) J Immunol 159:268-278). Cells were labeled with a florescence dye 2′,7′-bis-(carboxyethyl)-5(and-6)-carboxyfluorescein, acetoxymethyl ester (BCECF-AM), and resuspended to 1×10^6/ml in L15/FBS. 50 μl cell suspension was mixed in ICAM-1 coated wells with an equal volume of L15/FBS in the absence or presence of monoclonal antibody (CBRLFA-1/2, 10 μg/ml). Monoclonal antibodies were used at final concentration of 1:20 hybridoma supernatant, 1:200 ascites, or μg/ml purified IgG. For testing the effect of divalent cations, BCECF-AM-labeled cells were washed 2× with TS buffer, pH7.5 (20 mM Tris, pH 7.5, 150 mMNaCl) containing 5 mM EDTA, followed by 2 washes with TS buffer, pH7.5. Cells were then resuspended to 5×10^5/ml in the TS buffer, pH7.5 supplemented with 1 mM MgCl2/CaCl2, MgCl2, MnCl2 mM EDTA, and 100 μl cell suspension was added to ICAM-1 coated wells. After incubation at 37° C. for 30 minutes, unbound cells were washed off on a Microplate Autowasher (Bio-Tek Instruments, Winooski, Vt.). The fluorescence content of total input cells and the bound cells in each well was quantitated on a Fluorescent Concentration Analyzer (IDEXX, Westbrook, Me.). The bound cells were expressed as a percentage of total input cells per sample well.
For generating stable K562 transfectants that express the I-domain on the surface, 20 μg of SspI-linearized pcDNA3.1/Hygro(+) containing the sequences encoding the I domain and the PDGFR transmembrane domain was used to transfect K562 cells by electroporation as described above. Transfectants were selected for resistance to 100 μg/ml hygromycin B, and were further subcloned by cell sorting and limiting dilution; clones that expressed similar levels of surface wild-type and mutant I domain-PDGFR were selected for functional studies. Stable cell lines were maintained in RPMI medium 1640 supplemented with 10% FBS and 100 μg/ml hygromycin B. Cell surface expression of the isolated I-domains was determined by flow cytometry using antibody TS1/22 to the I-domain (FIG. 7). Two clones from each transfectant were selected and tested for binding to immobilized ICAM-1, and similar results were obtained with each of the two clones (FIG. 8A).
If the constitutive ligand binding activity of mutant K287C/K294C is due to the formation of a disulfide bond between the introduced C287 and C294, disruption of the disulfide bond with a reducing agent would abolish ligand binding ability of the mutant. Accordingly, the transfectants were treated with the reducing agent DTT (10 mM) in L15/FBS containing Mg^2+ and Ca^2+, and the ability of transfectants to bind to ICAM-1 was assessed.
Furthermore, the effect of divalent cations on ligand binding of the isolated I-domains expressed on the surface of K562 transfectants was tested. The binding reactions were performed in HEPES/NaCl/glucose (20 mM HEPES, pH 7.5, 140 mM NaCl, 2 mg/ml glucose) supplemented with 1 mM […], 1 mM Mg^2+, or 1 mM EDTA.
Target sequence in this assay (P05362 28-532): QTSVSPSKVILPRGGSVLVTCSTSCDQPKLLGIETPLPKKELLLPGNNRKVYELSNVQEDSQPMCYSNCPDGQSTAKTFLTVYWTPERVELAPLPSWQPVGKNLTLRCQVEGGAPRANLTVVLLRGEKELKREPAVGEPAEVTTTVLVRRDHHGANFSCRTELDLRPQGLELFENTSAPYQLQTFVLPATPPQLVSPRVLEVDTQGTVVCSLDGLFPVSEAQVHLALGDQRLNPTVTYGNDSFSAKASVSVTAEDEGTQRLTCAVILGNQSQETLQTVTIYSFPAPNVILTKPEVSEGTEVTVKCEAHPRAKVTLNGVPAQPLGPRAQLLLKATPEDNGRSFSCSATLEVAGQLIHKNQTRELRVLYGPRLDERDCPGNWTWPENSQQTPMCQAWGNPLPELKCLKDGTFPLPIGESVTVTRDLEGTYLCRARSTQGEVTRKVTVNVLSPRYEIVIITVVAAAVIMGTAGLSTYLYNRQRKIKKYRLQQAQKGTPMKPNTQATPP

ICAM-1 [2] = target: T1, ICAM-1; assay: BIAcore binding of soluble αL I-domains to ICAM-1; conditions: for Kon, interaction of αL I-domains with ICAM-1: calculated by Koff/KD; for Koff, interaction of αL I-domains with ICAM-1: curve fitting of dissociation phase, 1:1 binding model
Procedure: Briefly, recombinant mutant αL I-domain stabilized in the open conformation (K287C/K294C), or recombinant wild-type αL I-domain from amino acid residue G128 to Y307, were cloned into pET11b (Novagen) and expressed in E. coli induced with 1 mM IPTG for 4 hours. The recombinant proteins were purified from inclusion bodies by solubilization of inclusion bodies in 6M guanidine HCl and were refolded by dilution in the presence of 0.1 mM Cu^2+/phenanthrolin to enhance formation of disulfide bonds. Protein was concentrated by ammonium sulfate precipitation, dialyzed, and purified over a monoQ ion-exchange column. […] The recombinant proteins were then purified by gel filtration and concentrated by Centriprep. For BIAcore™ analysis, recombinant ICAM-1, ICAM-2 and ICAM-3 Fc chimeras were immobilized on the BIAcore™ sensor chip by an amine-coupling method. Recombinant αL I-domains were flowed in, and BIAcore™ assays were performed with Tris-buffered saline supplemented with 1 mM MgCl2 or 2 mM EDTA, at a flow rate of 10 μl/minute at 25° C.
Target sequence in this assay (P05362 28-480 limits assumed): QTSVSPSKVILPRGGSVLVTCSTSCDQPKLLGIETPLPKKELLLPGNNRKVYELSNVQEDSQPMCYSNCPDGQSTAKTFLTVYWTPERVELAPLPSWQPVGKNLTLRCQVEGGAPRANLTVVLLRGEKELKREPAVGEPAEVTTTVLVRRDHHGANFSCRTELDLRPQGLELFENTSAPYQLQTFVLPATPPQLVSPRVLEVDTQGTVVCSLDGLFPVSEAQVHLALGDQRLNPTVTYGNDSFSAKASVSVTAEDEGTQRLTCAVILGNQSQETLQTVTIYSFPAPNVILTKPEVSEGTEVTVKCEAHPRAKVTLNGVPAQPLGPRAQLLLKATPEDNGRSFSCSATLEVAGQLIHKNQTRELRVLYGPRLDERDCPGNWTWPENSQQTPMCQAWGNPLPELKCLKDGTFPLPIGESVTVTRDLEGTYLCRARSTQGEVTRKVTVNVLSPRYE

[3] = tested on: T-lymphocytes in peripheral lymph node high endothelial venules; assay: Intravital microscopy of lymphocyte behaviour in peripheral lymph node high endothelial venules; type: in vivo; conditions: mouse
Procedure: Moreover, the ability of the open I-domain mutants to inhibit LFA-1 function in vivo was tested by visualizing microcirculation in the peripheral lymph node (LN) with intravital microscopy. Briefly, a small bolus (20-50 µl) of LN cell suspensions from […] mice were retrogradely injected through a femoral artery catheter and visualized in the subiliac LN by fluorescent epi-illumination from a video-triggered xenon arc stroboscope. After recording control […] cell behavior in the absence of 1-domain, the mouse was pretreated by intra-arterial injection of 1-domain (10 µg/g of weight) 5 minutes before T^GFP cell injection. All scenes were recorded on videotape and off-line analysis was done. The rolling fraction was calculated as percentage of rolling cells amount the total number of TGFβ cells that entered a venule. The sticking (firm adhesion) fraction was determined as the percentage of T^GFP cells becoming firmly adherent for >20 seconds in the number of T^GFP cells that rolled in a venule. Results were semi-quantitatively scored as follows: −: 0%, .+−.: 0-5%, +: 5-20%, ++: 20-40%, +++: 40-60%, ++++: 60-80%, +++++:80-100%.

Molecule | binding of 293T transient transfectants to immobilized ICAM-1 with activating mAb CBRLFA-1/2 (ICAM-1 [1]; 293T, CBRLFA-1/2 10 μg/ml) | binding of 293T transient transfectants to immobilized ICAM-1 (ICAM-1 [1]; 293T, no activating antibody) | binding of K562 cells expressing isolated I-domains to immobilized ICAM-1 (ICAM-1 [1]) | effect of Mn2+ or Mg2+ on ligand binding of isolated I-domains (ICAM-1 [1]) | binding of K562 stable transfectants to immobilized ICAM-1 with activating mAb CBRLFA-1/2 (ICAM-1 [1]; K562, CBRLFA-1/2 10 μg/ml) | effect of Mn2+ and Mg2+ on binding of K562 transfectants to ICAM-1 (ICAM-1 [1]; K562, intact LFA-1, Mn2+ / Mg2+) | binding of K562 stable transfectants to immobilized ICAM-1 (ICAM-1 [1]; K562, no activating antibody) | effect of DTT treatment on binding to ICAM-1 (ICAM-1 [1]) | Kon, interaction of αL I-domains with ICAM-1 (ICAM-1 [2]) [M⁻¹ s⁻¹] | Koff, interaction of αL I-domains with ICAM-1 (ICAM-1 [2]) [s⁻¹] | Fraction transmigration ([3]; intra-arterial I-domain 10 μg/g) | Fraction Rolling ([3]; intra-arterial I-domain 10 μg/g 5 minutes before T-GFP cell injection) | Fraction firm adhesion ([3]; intra-arterial I-domain 10 μg/g, adherent >20 seconds) | Kd (ICAM-1 [2]; Scatchard plots using data at steady states, read-out: KD, interaction of αL I-domains with ICAM-1) [mM]
B1 | not able to activate binding | did not bind | did not bind | did not activate ligand binding | did not binding to ICAM-1 | did not increase binding | did not binding to ICAM-1 | did not affect binding | 2110 | 2.84 |  |  |  | 
B2 |  |  | did not bind | did not activate ligand binding |  |  |  | did not affect binding | 2220 | 3.00 | ± (.+−.: 0-5%) | +++ (+++: 40-60%) | ++ (++: 20-40%) | 1.35
